The assay deals with human PD-L1 expressed on CHO-K1 cells (human) (UniProt Q9NZQ7). Put plainly: FACS binding to CHO-K1 cells stably expressing human PD-L1, FITC anti-human IgG secondary, Geo.Mean fluorescence vs log(nM) antibody. In general terms: A flow cytometer gives signals particle by particle.
human PD-L1 expressed on CHO-K1 cells (human), sequence (Q9NZQ7 19-290): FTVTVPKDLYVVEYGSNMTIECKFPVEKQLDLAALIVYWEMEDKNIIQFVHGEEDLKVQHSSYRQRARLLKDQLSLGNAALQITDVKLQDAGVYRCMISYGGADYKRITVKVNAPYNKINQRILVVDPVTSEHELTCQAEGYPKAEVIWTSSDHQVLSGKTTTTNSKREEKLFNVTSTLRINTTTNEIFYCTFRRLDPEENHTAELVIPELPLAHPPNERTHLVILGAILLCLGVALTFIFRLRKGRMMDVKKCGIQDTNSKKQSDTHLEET

One may read the EC50 (read off the curve) as the concentration that produces a half-maximal response. Higher therefore signals a less potent agent. Substance Tecentriq® (antibody) showed a 50% effective concentration (EC50 (read off the curve)) of 20 nM.

The values above are taken from patent publication US20210221891A1.
